pKd: −log10 of the molar value. Like-named read-outs stand apart in the source and are kept apart here.
Tests used:
Experiment in all cases: transient-state stopped-flow spectrofluorometry
[1] = target: L47fUAA GCK (human pancreatic glucokinase with L-(7-hydroxycoumarin-4-yl)ethylglycine in place of Leu47) (human) (UniProt P35557)
[2] = target: L47fUAA GCK (human pancreatic glucokinase with L-(7-hydroxycoumarin-4-yl)ethylglycine in place of Leu47) (human) (UniProt P35557); remark: listed apart in the source
[3] = target: L47fUAA GCK (human pancreatic glucokinase with L-(7-hydroxycoumarin-4-yl)ethylglycine in place of Leu47) (human) (UniProt P35557); remark: listed apart in the source

Substance “glucokinase regulatory protein (GKRP) (from UniProt Q14397 1-625) (natural protein)” has a K2 (step 2, equilibrium constant of isomerisation) [1] of 0.72, a pKd [1] of 6.91 and a Kd,intrinsic (step 1, encounter complex) [1] of 210 nM. It also gave a k1 (step 1, formation of the encounter complex) [1] of 170000 M⁻¹ s⁻¹, a k−1 (step 1, dissociation of the encounter complex) [1] of 0.036 s⁻¹ and a k−2 (step 2, isomerisation reverse) [1] of 0.36 s⁻¹. It also gave a K2 (step 2, equilibrium constant of isomerisation) [2] of 0.51, a pKd [2] of 4.68 and a Kd,intrinsic (step 1, encounter complex) [2] of 32000 nM. For the same substance, the k1 (step 1, formation of the encounter complex) [2] was 64000 M⁻¹ s⁻¹, the k−1 (step 1, dissociation of the encounter complex) [2] was 2.06 s⁻¹ and the k−2 (step 2, isomerisation reverse) [2] was 0.21 s⁻¹. The pKd [3] was 6.91.
